According to patent publication US20230151095A1 (published 2023):
Positions count from the first letter of the chain named. Each block holds one binder with its values, some of them ahead of it.

Columns and labels:
[1] = molecular target: T1, XENP23311 (His-tagged NKG2D-Fc) (human, UniProt P26718 78-216); test: Biacore; 1:1 Langmuir
T1 chain: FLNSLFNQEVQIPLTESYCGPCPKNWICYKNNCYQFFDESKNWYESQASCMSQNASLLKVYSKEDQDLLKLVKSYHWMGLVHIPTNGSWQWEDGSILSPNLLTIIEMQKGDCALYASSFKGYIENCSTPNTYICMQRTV

[2] = molecular target: T1, XENP23311 (His-tagged NKG2D-Fc); test: Biacore; steady state
CD16 = CD16 (UniProt P08637 17-208)
CD16, sequence (P08637 17-208): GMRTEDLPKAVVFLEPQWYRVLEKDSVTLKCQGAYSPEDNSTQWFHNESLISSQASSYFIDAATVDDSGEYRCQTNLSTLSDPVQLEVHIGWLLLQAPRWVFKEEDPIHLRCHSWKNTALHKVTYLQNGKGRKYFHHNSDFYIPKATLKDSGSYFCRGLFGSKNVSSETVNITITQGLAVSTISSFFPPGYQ

B2: XENP41029 (antibody)
chain 1: EVQLLESGGGLVQPGGSLRLSCAVSGFSLSSYGVIWVRQAPGKGLEYVSWVSSGGSTNYASSVKGRFTISRDTSKNTVYLQMNSLRAEDTAVYFCARGATNSGTDIWGPGTLVTVSSASTKGPSVFPLAPSSKSTSGGTAALGCLVKDYFPEPVTVSWNSGALTSGVHTFPAVLQSSGLYSLSSVVTVPSSSLGTQTYICNVNHKPSDTKVDKKVEPKSCDKTHTCPPCPAPELLGGPDVFLFPPKPKDTLMISRTPEVTCVVVDVSHEDPEVKFNWYVDGVEVHNAKTKPREEEYNSTYRVVSVLTVLHQDWLNGKEYKCKVSNKALPAPIEKTISKAKGQPREPQVYTLPPSREEMTKNQVSLTCDVSGFYPSDIAVEWESDGQPENNYKTTPPVLDSDGSFFLYSKLTVDKSRWEQGDVFSCSVMHEALHNHYTQKSLSLSPGK
chain 2: not shown
chain 3: DIVMTQSPSSLSASVGDRVTITCRASQSINSWLSWYQQKPGKPPKLLIYGASNLASGVPSRFKGSGSGTDFTLTISSLQPEDFATYYCQNNYGIIAAGATFGGGTKVEIKRTVAAPSVFIFPPSDEQLKSGTASVVCLLNNFYPREAKVQWKVDNALQSGNSQESVTEQDSKDSTYSLSSTLTLSKADYEKHKVYACEVTHQGLSSPVTKSFNRGEC
Kd (CD16): 229 nM

B3: XENP41024 (antibody)
chain 1: B2 chain 1 with D239S, I332E
chain 2: EVQLLESGGGLVQPGGSLRLSCAVSGFSLSSYGVIWVRQAPGKGLEYVSWVSSGGSTNYASSVKGRFTISRDTSKNTVYLQMNSLRAEDTAVYFCARGATNSGTDIWGPGTLVTVSSGKPGSGKPGSGKPGSGKPGSDIVMTQSPSSLSASVGDRVTITCRASQSINSWLSWYQQKPGKPPKLLIYGASNLASGVPSRFKGSGSGTDFTLTISSLQPEDFATYYCQNNYGIIAAGATFGGGTKVEIKEPKSSDKTHTCPPCPAPELLGGPSVFLFPPKPKDTLMISRTPEVTCVVVDVSHEDPEVKFNWYVDGVEVHNAKTKPREEQYNSTYRVVSVLTVLHQDWLNGKEYKCKVSNKALPAPEEKTISKAKGQPREPQVYTLPPSREQMTKNQVKLTCLVKGFYPSDIAVEWESNGQPENNYKTTPPVLDSDGSFFLYSKLTVDKSRWQQGNVFSCSVMHEALHNHYTQKSLSLSPGK
chain 3: B2 chain 3
Kd (CD16): 120 nM

B4: XENP40375_H1L1 (antibody)
chain 1: B2 chain 1 with D239S
chain 2: not shown
chain 3: B2 chain 3
Kd [1]: 15.5 nM
Kd [2]: 19 nM

B7: XENP41023 (antibody)
chain 1: B2 chain 1
chain 2: B3 chain 2 with S271D, E364I
chain 3: B2 chain 3
Kd (CD16): 102 nM

Further lines, results first:

Kd [1]: 14800 nM
Kd [2]: 5410 nM
B1: XENP42653 (bispecific antibody)
heavy: B2 chain 1 with D239S
chain: not shown
light: B2 chain 3

Kd [1]: 4190 nM
Kd [2]: 1490 nM
B5: XENP42655 (bispecific antibody)
heavy: B2 chain 1 with D239S
chain: not shown
light: B2 chain 3

Kd [1]: 253 nM
Kd [2]: 162 nM
B6: XENP42652 (bispecific antibody)
heavy: B2 chain 1 with D239S
chain: not shown
light: B2 chain 3

Kd (CD16): 104 nM
B8: XENP41036 (antibody)
chain 1: B2 chain 1 with D239S, I332E
chain 2: B3 chain 2 with S271D, E364I
chain 3: B2 chain 3
